Reference: the supplement of paper PMC6757056
± gives the standard deviation of the averaged measurements.

B1: library; a variant is named by its letters at N, in order (parent)
chain: GCUGUCACCGAGAAACUGUGAAGUAUAUCUUAAACCUGGGCACUUAAAAGAUAUAUGGAGUUAGUAGUGCAACCUGCUCGGUCUGAUGAGUCCNNNNNNGGACGAAACAGC

What was measured:
cyclic di-GMP [1] = variants of: B1; experiment: normalized RNA/DNA level without ligand (relative to sTRSVctl = 100) (log10 (% of sTRSVctl)); HEK293T; ligand: cyclic di-GMP (c-di-GMP-II aptamer); higher = less ribozyme self-cleavage, higher mRNA level; conditions: reporter: mCherry (pCS4076), ligand present: no
How it was run: (§1)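 Ribozyme switch library plasmids linked to reporters were introduced into HEK293T cells at 4 µg per 6-well well, with ligand, if any, added 1 h before. Total RNA was extracted with EDTA 72 h later, reverse-transcribed, amplified, barcoded and sequenced. RNA level was computed from RNA over DNA reads relative to a spiked-in non-cleaving sequence or the top sequences, then scaled and log-transformed. The top set was 25 sequences, values were ×100 and log10, and the cutoff was ≥100 DNA reads.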

cyclic di-GMP [2] = variants of: B1; experiment: normalized RNA/DNA level with ligand (relative to sTRSVctl = 100) (log10 (% of sTRSVctl)); HEK293T; ligand: cyclic di-GMP (c-di-GMP-II aptamer); ligand concentration (+) RNA-Seq: 1 mM; higher = less ribozyme self-cleavage, higher mRNA level; conditions: reporter: mCherry (pCS4076), ligand present: yes
How it was run: as §1

Variant | normalized RNA/DNA level without ligand (log10) (cyclic di-GMP [1]) | normalized RNA/DNA level with ligand (log10) (cyclic di-GMP [2])
CGAAGG | 1.634 ± 0.0028 | 1.82 ± 0.097
AAUAUU | 1.667 ± 0.015 | 1.83 ± 0.083
GAAGAC | 1.563 ± 0.0055 | 1.76 ± 0.12
CCCUGU | 1.75 ± 0.043 | 1.87 ± 0.13
GGGAAG | 1.63 ± 0.069 | 1.7145 ± 0.00089
AACUAC | 1.7 ± 0.019 | 1.84 ± 0.12
AGGCCA | 1.721 ± 0.017 | 1.85 ± 0.096
UUGCUU | 1.727 ± 0.0027 | 1.88 ± 0.12
UUUGUG | 1.72 ± 0.042 | 1.91 ± 0.05
AAUUUG | 1.62 ± 0.071 | 1.75 ± 0.12
AAUUAC | 1.72 ± 0.068 | 1.83 ± 0.099
GAGUCC | 1.8 ± 0.043 | 1.88 ± 0.064
GAGUCG | 1.83 ± 0.031 | 1.88 ± 0.092
GGUUAU | 1.64 ± 0.049 | 1.8 ± 0.2
UGAGCC | 1.84 ± 0.02 | 1.91 ± 0.14
CGAGCU | 1.82 ± 0.022 | 1.88 ± 0.077
UUGCAG | 1.8468 ± 0.00037 | 1.9 ± 0.042
AUCUAA | 1.52 ± 0.019 | 1.7 ± 0.091
ACCCGG | 1.7 ± 0.022 | 1.86 ± 0.099
UAUGUC | 1.73 ± 0.034 | 1.85 ± 0.099
UAGGUC | 1.64 ± 0.032 | 1.81 ± 0.12
GGAGAC | 1.72 ± 0.035 | 1.85 ± 0.059
GCAACG | 1.54 ± 0.046 | 1.78 ± 0.11
AAUUCG | 1.6472 ± 0.0012 | 1.8 ± 0.12

Variant | normalized RNA/DNA level without ligand (log10) (cyclic di-GMP [1]) | normalized RNA/DNA level with ligand (log10) (cyclic di-GMP [2])
AGCGUU | 1.678 ± 0.0089 | 1.82 ± 0.16
CUGUCC | 1.786 ± 0.0046 | 1.92 ± 0.12
CUGGAC | 1.63 ± 0.018 | 1.77 ± 0.096
GGCUAC | 1.7 ± 0.023 | 1.84 ± 0.085
GUUGUU | 1.67 ± 0.038 | 1.81 ± 0.098
GCGGCC | 1.73 ± 0.039 | 1.86 ± 0.15
UUCAGA | 1.7 ± 0.084 | 1.81 ± 0.069
ACGUAC | 1.58 ± 0.053 | 1.78 ± 0.077
UCUAGA | 1.74 ± 0.021 | 1.88 ± 0.15
GAAACU | 1.63 ± 0.035 | 1.79 ± 0.1
GCUAGC | 1.696 ± 0.0018 | 1.8 ± 0.17
UAUUUC | 1.75 ± 0.0095 | 1.87 ± 0.1
CCUCGU | 1.75 ± 0.057 | 1.86 ± 0.084
CUAUCA | 1.538 ± 0.014 | 1.74 ± 0.038
UGACCU | 1.72 ± 0.016 | 1.87 ± 0.087
CAAAUC | 1.61 ± 0.034 | 1.76 ± 0.091
UCAUGA | 1.57 ± 0.026 | 1.75 ± 0.12
UUAGGG | 1.65 ± 0.018 | 1.8 ± 0.12
GACCAC | 1.69 ± 0.056 | 1.85 ± 0.12
GAGCGA | 1.735 ± 0.0089 | 1.85 ± 0.085
GAUCGC | 1.74 ± 0.019 | 1.86 ± 0.051
ACUCCU | 1.72 ± 0.051 | 1.9 ± 0.1
UCGUGA | 1.47 ± 0.082 | 1.73 ± 0.09
GGUGGA | 1.55 ± 0.11 | 1.7 ± 0.065

Variant | normalized RNA/DNA level without ligand (log10) (cyclic di-GMP [1]) | normalized RNA/DNA level with ligand (log10) (cyclic di-GMP [2])
CUGCUA | 1.4 ± 0.025 | 1.57 ± 0.091
GGGUAC | 1.73 ± 0.012 | 1.8 ± 0.045
UGUGUU | 1.665 ± 0.0047 | 1.82 ± 0.16
GCUCGC | 1.82 ± 0.042 | 1.87 ± 0.097
GCAUAA | 1.41 ± 0.19 | 1.61 ± 0.064
AUCCUA | 1.61 ± 0.041 | 1.78 ± 0.083
UCGCCU | 1.76 ± 0.029 | 1.92 ± 0.12
CUUGCU | 1.76 ± 0.021 | 1.86 ± 0.12
ACUAUC | 1.622 ± 0.012 | 1.79 ± 0.067
GGACUC | 1.757 ± 0.0094 | 1.92 ± 0.082
ACCAAU | 1.48 ± 0.049 | 1.7 ± 0.11
CCUAUG | 1.48 ± 0.038 | 1.7 ± 0.083
CCGGCA | 1.7 ± 0.026 | 1.79 ± 0.12
GUGGCU | 1.76 ± 0.029 | 1.86 ± 0.074
GUGGCA | 1.81 ± 0.027 | 1.91 ± 0.097
UGAGUU | 1.67 ± 0.017 | 1.8 ± 0.091
UGCCGC | 1.774 ± 0.015 | 1.9 ± 0.049
AUAUAA | 1.5 ± 0.042 | 1.67 ± 0.13
AUCCAC | 1.718 ± 0.016 | 1.85 ± 0.088
CCCUAU | 1.62 ± 0.048 | 1.8 ± 0.069
CUUGGC | 1.79 ± 0.034 | 1.92 ± 0.085
UUUUCU | 1.78 ± 0.071 | 1.9 ± 0.12
GUCGGU | 1.67 ± 0.039 | 1.83 ± 0.062
GGUACU | 1.71 ± 0.067 | 1.82 ± 0.16

Variant | normalized RNA/DNA level without ligand (log10) (cyclic di-GMP [1]) | normalized RNA/DNA level with ligand (log10) (cyclic di-GMP [2])
AGAUGG | 1.55 ± 0.089 | 1.73 ± 0.082
CAUAUU | 1.45 ± 0.13 | 1.64 ± 0.067
UAUACG | 1.75 ± 0.029 | 1.85 ± 0.11
CUACUG | 1.64 ± 0.025 | 1.83 ± 0.078
CAUAGA | 1.54 ± 0.073 | 1.69 ± 0.031
GUCGUC | 1.67 ± 0.036 | 1.78 ± 0.11
UAUUGC | 1.76 ± 0.025 | 1.87 ± 0.088
CGAGUG | 1.7 ± 0.049 | 1.83 ± 0.15
UCCCAG | 1.79 ± 0.048 | 1.9 ± 0.089
GAAGGU | 1.58 ± 0.08 | 1.77 ± 0.052
GCGAAG | 1.45 ± 0.068 | 1.63 ± 0.087
UAGCAC | 1.708 ± 0.0035 | 1.83 ± 0.095
CGGGCC | 1.92 ± 0.02 | 1.95 ± 0.067
GUGCUA | 1.646 ± 0.0015 | 1.8 ± 0.091
GUGCUG | 1.75 ± 0.024 | 1.86 ± 0.12
CGACAU | 1.43 ± 0.16 | 1.63 ± 0.12
GAGGAG | 1.752 ± 0.014 | 1.82 ± 0.081
GUACCC | 1.75 ± 0.058 | 1.88 ± 0.097
UACCUU | 1.637 ± 0.0055 | 1.82 ± 0.12
UGGUUC | 1.7 ± 0.033 | 1.83 ± 0.12
GUGUUU | 1.72 ± 0.023 | 1.9 ± 0.092
CUUUUC | 1.73 ± 0.022 | 1.85 ± 0.12
CCGAUC | 1.55 ± 0.019 | 1.73 ± 0.094
CCGAAC | 1.56 ± 0.058 | 1.72 ± 0.12

Variant | normalized RNA/DNA level without ligand (log10) (cyclic di-GMP [1]) | normalized RNA/DNA level with ligand (log10) (cyclic di-GMP [2])
AAUCUC | 1.74 ± 0.032 | 1.86 ± 0.075
GCCAUG | 1.59 ± 0.051 | 1.79 ± 0.066
ACGCCU | 1.64 ± 0.099 | 1.8 ± 0.036
CUGCCA | 1.613 ± 0.0037 | 1.76 ± 0.18
AUGUCU | 1.7 ± 0.028 | 1.84 ± 0.046
AGUAUG | 1.54 ± 0.085 | 1.75 ± 0.087
GACAAA | 1.47 ± 0.11 | 1.66 ± 0.077
AAUCAG | 1.61 ± 0.057 | 1.76 ± 0.026
AGGGCA | 1.756 ± 0.017 | 1.81 ± 0.048
CGCCCA | 1.84 ± 0.069 | 1.91 ± 0.11
CGAUUA | 1.28 ± 0.11 | 1.43 ± 0.12
UUGUCC | 1.8 ± 0.026 | 1.89 ± 0.098
UGCGGC | 1.757 ± 0.0021 | 1.9 ± 0.12
UGCGGG | 1.81 ± 0.045 | 1.92 ± 0.067
CAGUGU | 1.718 ± 0.0057 | 1.84 ± 0.12
GUGAUA | 1.5 ± 0.034 | 1.7 ± 0.097
UGGGCU | 1.81 ± 0.042 | 1.89 ± 0.089
CAGCAC | 1.65 ± 0.067 | 1.79 ± 0.025
GCUUAC | 1.53 ± 0.026 | 1.75 ± 0.075
CGUGGC | 1.748 ± 0.0072 | 1.85 ± 0.15
